From IntAct's records for PubMed 20300064

B1: Rho guanine nucleotide exchange factor 11 (Homo sapiens), O15085 (parent)
chain: MSVRLPQSIDRLSSLSSLGDSAPERKSPSHHRQPSDASETTGLVQRCVIIQKDQHGFGFTVSGDRIVLVQSVRPGGAAMKAGVKEGDRIIKVNGTMVTNSSHLEVVKLIKSGAYVALTLLGSSPSSMGISGLQQDPSPAGAPRITSVIPSPPPPPPLPPPQRITGPKPLQDPEVQKHATQILRNMLRQEEKELQDILPLYGDTSQRPSEGRLSLDSQEGDSGLDSGTERFPSLSESLMNRNSVLSDPGLDSPRTSPVIMARVAQHHRRQGSDAAVPSTGDQGVDQSPKPLIIGPEEDYDPGYFNNESDIIFQDLEKLKSRPAHLGVFLRYIFSQADPSPLLFYLCAEVYQQASPKDSRSLGKDIWNIFLEKNAPLRVKIPEMLQAEIDSRLRNSEDARGVLCEAQEAAMPEIQEQIHDYRTKRTLGLGSLYGENDLLDLDGDPLRERQVAEKQLAALGDILSKYEEDRSAPMDFALNTYMSHAGIRLREARPSNTAEKAQSAPDKDKWLPFFPKTKKSSNSKKEKDALEDKKRNPILKYIGKPKSSSQSTFHIPLSPVEVKPGNVRNIIQHFENNQQYDAPEPGTQRLSTGSFPEDLLESDSSRSEIRLGRSESLKGREEMKRSRKAENVPRSRSDVDMDAAAEATRLHQSASSSTSSLSTRSLENPTPPFTPKMGRRSIESPSLGFCTDTLLPHLLEDDLGQLSDLEPEPDAQNWQHTVGKDVVAGLTQREIDRQEVINELFVTEASHLRTLRVLDLIFYQRMKKENLMPREELARLFPNLPELIEIHNSWCEAMKKLREEGPIIKEISDLMLARFDGPAREELQQVAAQFCSYQSIALELIKTKQRKESRFQLFMQEAESHPQCRRLQLRDLIISEMQRLTKYPLLLESIIKHTEGGTSEHEKLCRARDQCREILKYVNEAVKQTENRHRLEGYQKRLDATALERASNPLAAEFKSLDLTTRKMIHEGPLTWRISKDKTLDLHVLLLEDLLVLLQKQDEKLLLKCHSKTAVGSSDSKQTFSPVLKLNAVLIRSVATDKRAFFIICTSKLGPPQIYELVALTSSDKNTWMELLEEAVRNATRHPGAAPMPVHPPPPGPREPAQQGPTPSRVELDDSDVFHGEPEPEELPGGTGSQQRVQGKHQVLLEDPEQEGSAEEEELGVLPCPSTSLDGENRGIRTRNPIHLAFPGPLFMEGLADSALEDVENLRHLILWSLLPGHTMETQAAQEPEDDLTPTPSVISVTSHPWDPGSPGQAPPGGEGDNTQLAGLEGERPEQEDMGLCSLEHLPPRTRNSGIWESPELDRNLAEDASSTEAAGGYKVVRKAEVAGSKVVPALPESGQSEPGPPEVEGGTKATGNCFYVSMPSGPPDSSTDHSEAPMSPPQPDSLPAGQTEPQPQLQGGNDDPRRPSRSPPSLALRDVGMIFHTIEQLTLKLNRLKDMELAHRELLKSLGGESSGGTTPVGSFHTEAARWTDGSLSPPAKEPLASDSRNSHELGPCPEDGSDAPLEDSTADAAASPGP

Variants of: B1
Settings: with rhoa_human RHOA

Row | effect of a mutation on the interaction | Variant
1 | disrupting interaction | L869A
2 | disrupting interaction | R867Q
3 | disrupting interaction | R868G

Variants of: B1
Settings: with rhoa_human RHOA
Remark: another data set of the same source

Row | effect of a mutation on the interaction | Variant
4 | decreasing interaction | E741N
5 | decreasing interaction | S748A

Variants of: B1
Settings: with rhoa_human RHOA
Remark: another data set of the same source

Row | effect of a mutation on the interaction | Variant
6 | disrupting interaction | E928A

Variants of: B1
Settings: with rhoa_human RHOA
Remark: another data set of the same source

Row | effect of a mutation on the interaction | Variant
7 | disrupting interaction | D873N
8 | disrupting interaction | I876M
9 | disrupting interaction | R872D
